We go through 2 substances from PMC10047488.

For test [1], the target named is Gal4 DNA-binding domain fusion of parkin fragment P2 (amino acids 141-326) (human) (UniProt O60260). As to the kind of experiment: two-hybrid; yeast two-hybrid based growth assay: diploids spotted in serial dilution on SD/-Leu/-Trp or SD/-Ade/-His/-Leu/-Trp plates with 0, 1, 5 or 10 uM PMN (peiminine), 30 °C, 3 days; and OD600 in liquid selective medium every 12 h for 48 h.

The target of test [2] is Gal4 DNA-binding domain fusion of HSD11B1L-181 fragment H2 (amino acids 92-181) (human). Described as above.
Gal4 DNA-binding domain fusion of HSD11B1L-181 fragment H2 (amino acids 92-181) (human), sequence (Q7Z5J1 92-181): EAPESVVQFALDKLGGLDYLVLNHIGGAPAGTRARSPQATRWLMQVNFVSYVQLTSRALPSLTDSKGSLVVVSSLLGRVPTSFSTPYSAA

“Gal4 activation domain fusion of HSD11B1L-181 fragment H2 (amino acids 92-181) (domain or fragment)”: in test [1], the reduction of the growth rate in selective medium after 48 h, 10 uM PMN group against the DMSO group came to 95%.
Regarding “Gal4 activation domain fusion of parkin fragment P2 (amino acids 141-326) (from UniProt O60260-1 141-326) (domain or fragment)”, the reduction of the growth rate in selective medium after 48 h, 10 mM PMN group against the DMSO group in test [2] is 93%.
